This note sets out measurements from paper PMC9076165 (RSC Advances, 2019).

Where two headings read alike, the source gives them in different places. Where a SMILES comes first, the peptide text is derived from it.

Series [1] is described as follows: Solubility of the peptide in assay buffer / stock solutions. The class given is physicochemical. Conditions: HK50 buffer (80 mM Hepes pH 7.6, 50 mM KCl), at concentrations equal to or higher than 10 μM.
Series [2] has as its target T1, 3h34P1 heptapeptide (L) (synthetic (Ph.D.-7 phage display)).
T1 chain: KNHDWGV
Briefly: tryptophan fluorescence quenching.

Series [3] concerns the target T2, RsmC (rRNA small subunit methyltransferase C) (Escherichia coli (ASKA collection), UniProt P39406 1-343).
T2 sequence: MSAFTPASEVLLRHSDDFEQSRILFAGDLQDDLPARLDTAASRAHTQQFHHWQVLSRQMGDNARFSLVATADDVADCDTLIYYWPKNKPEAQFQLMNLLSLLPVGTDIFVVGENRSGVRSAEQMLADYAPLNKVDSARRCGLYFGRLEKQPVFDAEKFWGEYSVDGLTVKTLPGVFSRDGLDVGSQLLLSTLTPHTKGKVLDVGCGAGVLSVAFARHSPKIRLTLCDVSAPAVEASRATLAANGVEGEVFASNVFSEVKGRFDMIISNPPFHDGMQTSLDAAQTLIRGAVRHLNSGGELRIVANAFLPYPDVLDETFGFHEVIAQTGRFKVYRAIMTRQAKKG
Briefly: FRET.

Series [4] deals with T1, 3h34P1 heptapeptide (L). Nature of the series: tryptophan fluorescence quenching.
The target in series [5] is T1, 3h34P1 heptapeptide (L). Briefly: tryptophan fluorescence quenching.
Series [6] has as its target T1, 3h34P1 heptapeptide (L). Briefly: tryptophan fluorescence quenching.

`CC(C)[C@H](NC(=O)CNC(=O)[C@H](Cc1c[nH]c2ccccc12)NC(=O)[C@H](CC(=O)O)NC(=O)[C@H](Cc1c[nH]cn1)NC(=O)[C@H](CC(N)=O)NC(=O)[C@@H](N)CCCCN)C(=O)O` [P1] (H-KNHDWGV-OH): the “Solubility in the buffer used for FRET titrations” value in series [1] was “low solubility”.

B1: Control RNA 1 (ssRNA)
RNA: GCCCUGAAAAGGGC
Regarding B1, the binding result with 3h34P1 heptapeptide (L) [2] is “no binding”.

B2: 3h34-Cy3 (ssRNA)
RNA: CCGUCAAGUCAUCAUGGCCC
B2: the binding result in series [3] is listed as “binds”.

B3: 5h34 (ssRNA)
RNA: GGUGCUGCAUGGCUGUCGG
Consider B3, for which the binding result in the series with 3h34P1 heptapeptide (L) [4] is on record as “binds”.

B4: Control RNA 2 (ssRNA)
RNA: GAGGCCUUCGGGCCUC
Regarding B4, the binding result with 3h34P1 heptapeptide (L) [5] is listed as “no binding”.

B5: 3h34 (ssRNA)
RNA: CCGUCAAGUCAUCAUGGCCC
As usually defined, the Kd is a measure of binding affinity in units of concentration. Read a high Kd as lower affinity. In turn, B5 registered a Kd with 3h34P1 heptapeptide (L) [6] of 18 ± 5 nM.
